These results are taken from publication PMC9464147.

Where “and” joins values, the source holds several entries; their conditions need not be identical. Equal values may be shown once.

Assay [1] deals with Salivary CA VI (carbonic anhydrase VI purified from human saliva) (human) (UniProt P23280). The experiment in a line: SEC; analytical SEC, Superdex 200 5/150 GL, 50 µg protein, 50 mM Tris-HCl pH 7.5, 0.1 ml/min, +12 °C; MW from a standard curve, oligomeric state calculated with a monomer MW of 33.57 kDa.
The target is the same in assay [2]. Nature of the assay: SEC; analytical SEC, Superdex 200 5/150 GL, 50 µg protein, 0.1 M Na-acetate buffer pH 5.0, 0.1 ml/min, +12 °C; MW from a standard curve, oligomeric state calculated with a monomer MW of 33.57 kDa.
The target in assay [3] is Milk CA VI (carbonic anhydrase VI purified from human milk) (human) (UniProt P23280). The experiment in a line: SDS-PAGE without cross-linker; milk CA VI without DSS treatment (lane 7), boiled in sample buffer with SDS and reducing agent, SDS-PAGE, densitometry of bands.
The target is the same in assay [4]. Nature of the assay: SEC; analytical SEC, Superdex 200 5/150 GL, 50 µg protein, 50 mM Tris-HCl pH 7.5, 0.1 ml/min, +12 °C; MW from a standard curve, oligomeric state calculated with a monomer MW of 33.57 kDa.
Assay [5] shares this target. Nature of the assay: cross-linking; DSS in 25- and 50-fold molar excess over protein (Table 3: 50-fold), milk CA VI 0.25-2 mg/ml in 100 mM Na2HPO4, 0.15 M NaCl pH 7.5, RT 30 min, quenched with Tris-HCl; reducing SDS-PAGE, densitometry of bands.
For assay [6] the target is unchanged. The experiment in a line: SEC; analytical SEC, Superdex 200 5/150 GL, 50 µg protein, 0.1 M Na-acetate buffer pH 5.0, 0.1 ml/min, +12 °C; MW from a standard curve, oligomeric state calculated with a monomer MW of 33.57 kDa.

On to “Salivary CA VI (carbonic anhydrase VI purified from human saliva) (from UniProt P23280 18-308) (enzyme)”, for which the stoichiometry N in assay [1] was 14; in assay [2], 6.
“Milk CA VI (carbonic anhydrase VI purified from human milk) (from UniProt P23280 18-308) (enzyme)” had a % of the lane in the dimer band (no DSS) in assay [3] of 9.67%. For the same substance, the stoichiometry N in assay [4] was 15 and 6. In assay [5], this substance had a % of the lane in the dimer band (0.25 mg/ml) of 16.1%, a % of the lane in the dimer band (0.5 mg/ml) of 9.88%, a % of the lane in the dimer band (0.75 mg/ml) of 19.4% and a % of the lane in the dimer band (1 mg/ml) of 17%. Further, in assay [5], the % of the lane in the dimer band (1.5 mg/ml) stood at 16.9%, the % of the lane in the dimer band (2 mg/ml) was 19%, the % of the lane in the hexamer band (0.25 mg/ml) was found to be 22.3% and the % of the lane in the hexamer band (0.5 mg/ml) was found to be 12.8%. Moreover, in assay [5], the % of the lane in the hexamer band (0.75 mg/ml) amounted to 20.3%, the % of the lane in the hexamer band (1 mg/ml) was 23.5%, the % of the lane in the hexamer band (1.5 mg/ml) was determined as 20.4% and the % of the lane in the hexamer band (2 mg/ml) is 20.8%. In assay [5], this substance displayed a % of the lane in the tetra- or pentamer band (0.25 mg/ml) of 14.1%, a % of the lane in the tetra- or pentamer band (0.5 mg/ml) of 10.2%, a % of the lane in the tetra- or pentamer band (0.75 mg/ml) of 15.2% and a % of the lane in the tetra- or pentamer band (1 mg/ml) of 13.2%. In addition, in assay [5], the % of the lane in the tetra- or pentamer band (1.5 mg/ml) stood at 12.7%, the % of the lane in the tetra- or pentamer band (2 mg/ml) worked out at 12.1% and the stoichiometry N was 5. The same substance yielded a stoichiometry N in assay [5] (dimer band) of 2. In addition, the stoichiometry N in assay [5] (hexamer band) was 6. In assay [6], the stoichiometry N is 7.

The term stoichiometry N denotes a count of units in the complex or per binding partner.
